B1: ZNF8 (parent)
chain: VHVIGVEEPSVGASMLFDIREST
B2: MAGEA6 (parent)
chain: KISGGPRISYPLLHEWALREGEE

Variants of: B1
Assay: protein stability index of a GFP-peptide fusion (GPS, HEK-293T) (PSI 1-6); higher = more stable
Conditions: c terminus: native
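Note: lentivirally expressed fusions sorted by FACS into six bins by GFP to DsRed ratio, PSI derived from sequencing read proportions per bin multiplied by bin number.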

Variant	protein stability index
DHVIGVEEPSVGASMLFDIREST [V1D]	3.96
GHVIGVEEPSVGASMLFDIREST [V1G]	3.85
WHVIGVEEPSVGASMLFDIREST [V1W]	2.06
QHVIGVEEPSVGASMLFDIREST [V1Q]	3.88
AHVIGVEEPSVGASMLFDIREST [V1A]	3.67
PHVIGVEEPSVGASMLFDIREST [V1P]	3.77
YHVIGVEEPSVGASMLFDIREST [V1Y]	2.29
MHVIGVEEPSVGASMLFDIREST [V1M]	2.29
EHVIGVEEPSVGASMLFDIREST [V1E]	4.18
CHVIGVEEPSVGASMLFDIREST [V1C]	1.93
SHVIGVEEPSVGASMLFDIREST [V1S]	3.97
NHVIGVEEPSVGASMLFDIREST [V1N]	4.07
FHVIGVEEPSVGASMLFDIREST [V1F]	1.82
LHVIGVEEPSVGASMLFDIREST [V1L]	1.79
RHVIGVEEPSVGASMLFDIREST [V1R]	2.82
HHVIGVEEPSVGASMLFDIREST [V1H]	3.78
THVIGVEEPSVGASMLFDIREST [V1T]	3.92
IHVIGVEEPSVGASMLFDIREST [V1I]	2
KHVIGVEEPSVGASMLFDIREST [V1K]	3.52
VHVSGVEEPSVGASMLFDIREST [I4S]	3.63
VHVDGVEEPSVGASMLFDIREST [I4D]	3.97
VHVNGVEEPSVGASMLFDIREST [I4N]	3.43
VHVEGVEEPSVGASMLFDIREST [I4E]	3.73
VHVYGVEEPSVGASMLFDIREST [I4Y]	2.16

Variant	protein stability index
VHVAGVEEPSVGASMLFDIREST [I4A]	3.55
VHVLGVEEPSVGASMLFDIREST [I4L]	2.51
VHVFGVEEPSVGASMLFDIREST [I4F]	2.13
VHVRGVEEPSVGASMLFDIREST [I4R]	2.9
VHVKGVEEPSVGASMLFDIREST [I4K]	3.18
VHVQGVEEPSVGASMLFDIREST [I4Q]	3.47
VHVVGVEEPSVGASMLFDIREST [I4V]	2.54
VHVHGVEEPSVGASMLFDIREST [I4H]	2.62
VHVWGVEEPSVGASMLFDIREST [I4W]	1.94
VHVPGVEEPSVGASMLFDIREST [I4P]	3.88
VHVTGVEEPSVGASMLFDIREST [I4T]	3.3
VHVMGVEEPSVGASMLFDIREST [I4M]	2.77
VHVCGVEEPSVGASMLFDIREST [I4C]	2.59
VHVGGVEEPSVGASMLFDIREST [I4G]	3.34
VKVIGVEEPSVGASMLFDIREST [H2K]	2.29
VYVIGVEEPSVGASMLFDIREST [H2Y]	2.51
VGVIGVEEPSVGASMLFDIREST [H2G]	3.35
VLVIGVEEPSVGASMLFDIREST [H2L]	2.9
VPVIGVEEPSVGASMLFDIREST [H2P]	3.59
VQVIGVEEPSVGASMLFDIREST [H2Q]	2.27
VNVIGVEEPSVGASMLFDIREST [H2N]	2.95
VMVIGVEEPSVGASMLFDIREST [H2M]	1.43
VIVIGVEEPSVGASMLFDIREST [H2I]	2.56
VCVIGVEEPSVGASMLFDIREST [H2C]	1.63

Variant	protein stability index
VAVIGVEEPSVGASMLFDIREST [H2A]	2.67
VRVIGVEEPSVGASMLFDIREST [H2R]	2.09
VWVIGVEEPSVGASMLFDIREST [H2W]	2.25
VSVIGVEEPSVGASMLFDIREST [H2S]	2.81
VTVIGVEEPSVGASMLFDIREST [H2T]	1.79
VEVIGVEEPSVGASMLFDIREST [H2E]	3.35
VFVIGVEEPSVGASMLFDIREST [H2F]	1.97
VDVIGVEEPSVGASMLFDIREST [H2D]	3.42
VVVIGVEEPSVGASMLFDIREST [H2V]	1.83
VHSIGVEEPSVGASMLFDIREST [V3S]	3.42
VHKIGVEEPSVGASMLFDIREST [V3K]	3.36
VHLIGVEEPSVGASMLFDIREST [V3L]	1.88
VHRIGVEEPSVGASMLFDIREST [V3R]	2.81
VHIIGVEEPSVGASMLFDIREST [V3I]	1.84
VHCIGVEEPSVGASMLFDIREST [V3C]	2.74
VHPIGVEEPSVGASMLFDIREST [V3P]	3.49
VHQIGVEEPSVGASMLFDIREST [V3Q]	3.87
VHNIGVEEPSVGASMLFDIREST [V3N]	3.89
VHMIGVEEPSVGASMLFDIREST [V3M]	2.84
VHDIGVEEPSVGASMLFDIREST [V3D]	3.95
VHFIGVEEPSVGASMLFDIREST [V3F]	1.94
VHTIGVEEPSVGASMLFDIREST [V3T]	3.08
VHYIGVEEPSVGASMLFDIREST [V3Y]	1.54
VHWIGVEEPSVGASMLFDIREST [V3W]	1.47

Variant	protein stability index
VHHIGVEEPSVGASMLFDIREST [V3H]	3.02
VHGIGVEEPSVGASMLFDIREST [V3G]	3.42
VHAIGVEEPSVGASMLFDIREST [V3A]	3.18
VHEIGVEEPSVGASMLFDIREST [V3E]	4.1
VHVIKVEEPSVGASMLFDIREST [G5K]	1.95
VHVISVEEPSVGASMLFDIREST [G5S]	1.56
VHVIPVEEPSVGASMLFDIREST [G5P]	2.36
VHVIIVEEPSVGASMLFDIREST [G5I]	2.51
VHVIRVEEPSVGASMLFDIREST [G5R]	1.61
VHVIFVEEPSVGASMLFDIREST [G5F]	2.47
VHVIVVEEPSVGASMLFDIREST [G5V]	2.71
VHVIEVEEPSVGASMLFDIREST [G5E]	2.42
VHVIAVEEPSVGASMLFDIREST [G5A]	1.63
VHVICVEEPSVGASMLFDIREST [G5C]	2.82
VHVIHVEEPSVGASMLFDIREST [G5H]	1.6
VHVIDVEEPSVGASMLFDIREST [G5D]	3.11
VHVIQVEEPSVGASMLFDIREST [G5Q]	1.66
VHVINVEEPSVGASMLFDIREST [G5N]	2.18
VHVILVEEPSVGASMLFDIREST [G5L]	3.04
VHVITVEEPSVGASMLFDIREST [G5T]	2.24
VHVIWVEEPSVGASMLFDIREST [G5W]	2.37
VHVIMVEEPSVGASMLFDIREST [G5M]	2.84

Variants of: B2
Assay: as above
Conditions: c terminus: native

Variant	protein stability index
KISGGPRISYPLLHEWALDEGEE [R19D]	2.96
KISGGPRISYPLLHEWALKEGEE [R19K]	2.08
KISGGPRISYPLLHEWALEEGEE [R19E]	2.29

— the supplement of paper PMC10567573
